Source: patent US20230049732A1 (UNIVERSITY OF LOUISVILLE RESEARCH FOUNDATION, published 2023)

T1: HPV16 VLPs (human papillomavirus type 16, UniProt P03101 1-505)
T1 construct: Specificity control; also called human papillomavirus VLPs
T1 sequence: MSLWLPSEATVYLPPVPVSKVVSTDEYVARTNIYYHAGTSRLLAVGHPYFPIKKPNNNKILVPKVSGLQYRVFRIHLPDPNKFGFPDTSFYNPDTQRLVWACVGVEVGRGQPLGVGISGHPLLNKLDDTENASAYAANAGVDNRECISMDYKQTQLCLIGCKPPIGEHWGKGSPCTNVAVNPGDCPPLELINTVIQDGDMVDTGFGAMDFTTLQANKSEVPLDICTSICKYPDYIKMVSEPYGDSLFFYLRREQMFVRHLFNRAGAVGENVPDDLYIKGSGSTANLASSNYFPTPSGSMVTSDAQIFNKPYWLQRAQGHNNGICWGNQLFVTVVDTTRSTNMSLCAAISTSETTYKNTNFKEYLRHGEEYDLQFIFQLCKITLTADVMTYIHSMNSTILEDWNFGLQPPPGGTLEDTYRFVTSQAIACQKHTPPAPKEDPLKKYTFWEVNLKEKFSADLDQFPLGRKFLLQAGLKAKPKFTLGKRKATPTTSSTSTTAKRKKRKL

B1: MAb #61 (antibody, V domains shown)
VH: QVQLQQSGAELARPGASVKMSCKASGYTFTSYTMHWVKQRPGQGLEWIGYINPSSGYTNYNQKFKDKATLTADKSSSTAYMQLSSLTSEDSAVYYCARPDGYYAWFAYWGQGTLVTVSA
VL: DIQMTQSSSSFSVSLGDRVTITCKASEDIYNRLAWYQQKPGNAPRLLISGATSLETGVPSRFSGSGSGKDYTLSITSLQTEDVATYYCQQYWSTPTFGGGTKLEIK
notes: Murine hybridoma antibody, supernatant; also called antibody 61
B2: MAb #19B (antibody, V domains shown)
VH: QVQLQQSGAELARPGASVKMSCKASGYTFTSYTMYWVKQRPGQGLEWIGYVNPSSGYTNYNQKFKDKATLTADKSSSTAYMQLSSLTSEDSAVYYCARHGNYRYDGYYGMDCWGQGTSVTVSS
VL: DIQMTQSSSSFSVSLGDRVTITCKASEDIYNRLAWYQQKPGNAPRLLISGATSLETGVPSRFSGSGSGKDYTLSITSLQTEDVATYYCQQYWSTPYTFGGGTKLEIK
notes: Murine hybridoma antibody, supernatant; also called antibody 19

Legend:
[1] = molecular target: T1, HPV16 VLPs; test: ELISA, VLPs coated
[2] = molecular target: T1, HPV16 VLPs; test: ELISA, intact VLPs coated, hybridoma supernatant

Row | Binder | binding result [1] | ELISA absorbance (405 nm) [2]
1 | B1 | no binding | 0.061
2 | B2 | no binding | 0.015
